Results on 17 sequences are retold here after the DeepSol protein solubility set.

The data set in a line: soluble on expression in E. coli; label from the status in PepcDB or PDB records.
For “MPFKMSSKAQTIKIFNLRSDTNEFIGAGDAYIPPHTGLPANCTDIAPPDIPSSHIAVFDAETQTWNLKEDHRGETVYDTTTGNQMYISEPGPLPENVTSVSPGGGYKKWDSKAKAWVNDEGAEVAARLREAEGTKSRLLQMASGKIAPLQDAVDLGIATDDEKAQLDEWKKYRVLVNRVDTSNPDWPEQPV”, the “soluble on expression in E. coli” value is given as “not soluble”. Under “MPTFLELNTTISVKEKELLTKEQFDKLLQAPNTTTLARLLHQSVYHLTVDDLNDLDRLESILMAELTKTYRWAFAETPQPDIVQLFTLRYTYHNVKVLLKAKASQADLSHLLLPIGDKPLVALEHLIRTMTSDEFPKEVVTEIQSIWAEYQDYQDIRVLEIGTDLAYFKALKQIAQRLEDPVFQQAVLIVIDLYNLITVRRAKSQNKPISFMMQLLSDEASRPSKTFITLEDDKDLMTWFENVTPDSYMTALKPYSEKLRQGTLQTTELEYLVDECLYHLFAKAKYQVDGPYVLARFLLAKSFEVKNLRLLAAALANDLPKERVIERMRPIA” stands “not soluble”; under “MGSDKIHHHHHHAAEGRKDFNLYTLVPGSATVVLETDDLAGMIQGINELSCSKDRHFLYVSKLFSYLKLHLYTLLEDTPHGLSKQMNKVLLSFHEPDNDRNQVLYCSLGNGDYELVEKFIRKYCSSSFPSKLFDYKGEEIRIYPMPDDSFLACYFTSDFLVVSYQKKLIEQVIDARLSKKSLLTDASFAKVHEDKRARVAATIYARMQPLSMGKATDGIRSCTQLGGWTEFDMKMNGDAIYFSGVSHDTDTCLTFMNVLRQQQPVEDFPGDILPASTFFFNKRSVTDMQAMLDFTARQEYTTSTYSDYIRDRDGELLAYLKENAGGEIVTCLFHSTDTLSNPCAVMSIPLRDGQQAERVLQGMLRTAPKEVDGPPKPRTTFCKTPLRAYTLYVLPRNTLFTQLTGITESALYIYACFYEGRLVLAPDVESLTAYLRHLDKKEILDDTPGYEEAVVNLSPSYNFMMVADLGETFSQPENYVRLIPAFFFRNQEFFRHFILSAQFTCTDGIVYPNVVLIYKGESDDVS”, “not soluble”.

As for “MAHHHHHHMLNPTFSLYRKTLQSYPVPPKIRHYDRRWSGSRTNPYNRQYWRVIMNENYSRPSFWVSDFRHRYLMRTGTDYQGQVPSSPQPGLYQGFSDVHKLLANHPKPQRESRHLPVLPMTPRVVFEHANEKRIDTAKKMRRDRRRIEELKTLEFWGWYMKLQRVRGRWCREQGVSSRGVYGPAVDAAELWG”, the “soluble on expression in E. coli” value is “not soluble”. Under “GMSKIFNEELAVIEAAAIAYLTAFNRADIPAVIATYTDDGVLMGPGRPAAVGKDELAEVYLSVFETVGFDMAYEIKEVVQTSADWAFVRSATEGTETNKATGVVTPAAYQELFLLRKSATGSWQTARYCTSKISP” stands “soluble”. The result for “MRLEYRLNDETKGYPALWNYANISNSEIIARMTCEYFIKEKNTYVVTATSVDPDGTAVIYIQKEVFANDPSDPTYSYIGFEIRELSETSSNIVDSQDVWNYEEILPSLHSDIIYIQRDGMSMEFSLDSREIDEDRKCYIYYGNFTGESR” reads “soluble”. The result for “MPDSSMKRGATLCLALAIGPGSTLADDSLGHRDNISTGLNQRQKAEMKVPPGFVEGSTLNGFIRNYYFARDNHDTPSRRDQREWAQGLMLSFRSGYTDTPIGIGLDAHAFYGLRLDGGGGSGGAGVLPLDSAGRPADSFSAAGAALKLRGLDSLLKIGDQLLENPVIASGVSRMVPQSYRGVTLKNYHFRALELDAGFVEATRLRNQSGHSHLTSGYGNGTKGGIAADRESPHIAWLGASYSAPGGSQATLYSGRLEDIWNQHYLGLSQPWRLSSQLTLTPWLHYYKTRDQGRSQLGRIDNDLYNAGLTLAGGGQSLSLSLQKVDGDTPFDFIAQNDRTFLYESNAMQYADFNGPGERSWKIQYQASLAFLAAPDWQFGAAYGRGQADLTRVDPDSAGYGYLYNPNGKNAQHWERDLSLRYAFPAGPAKGLSVTLRWATHRPGEGYTAPGNTRGNSSSDEYRVVVDYPIRLL” reads “not soluble”; that for “STLYEKLGGTTAVDLAVDKFYERVLQDDRIKHFFADVDMAKQRAHQKAFLTYAFGGTDKYDGRYMREAHKELVENHGLNGEHFDAVAEDLLATLKEMGVPEDLIAEVAAVAGAPAHKRDVLNQ”, “soluble”. “MSLLQSALDFLAGPGSLGGASGRDQSDFVGQTVELGELRLRVRRVLAEGGFAFVYEAQDVGSGREYALKRLLSNEEEKNRAIIQEVCFMKKLSGHPNIVQFCSAASIGKEESDTGQAEFLLLTELCKGQLVEFLKKMESRGPLSCDTVLKIFYQTCRAVQHMHRQKPPIIHRDLKVENLLLSNQGTIKLCDFGSATTISHYPDYSWSAQRRALVEEEITRNTTPMYRTPEIIDLYSNFPIGEKQDIWALGCILYLLCFRQHPFEDGAKLRIVNGKYSIPPHDTQYTVFHSLIRAMLQVNPEERLSIAEVVHQLQEIAAARNVNPKSPITELLEQNGGYGSATLSRGPPPPVGPAGSGYSGGLALAEYDQPYGGFLDILRGGTERLFTNLKDTSSKVIQSVANYAKGDLDISYITSRIAVMSFPAEGVESALKNNIEDVRLFLDSKHPGHYAVYNLSPRTYRPSRFHNRVSECGWAARRAPHLHTLYNICRNMHAWLRQDHKNVCVVHCMDGRAASAVAVCSFLCFCRLFSTAEAAVYMFSMKRCPPGIWPSHKRYIEYMCDMVAEEPITPHSKPILVRAVVMTPVPLFSKQRSGCRPFCEVYVGDERVASTSQEYDKMRDFKIEDGKAVIPLGVTVQGDVLIVIYHARSTLGGRLQAKMASMKMFQIQFHTGFVPRNATTVKFAKYDLDACDIQEKYPDLFQVNLEVEVEPRDRPSREAPPWENSSMRGLNPKILFSSREEQQDILSKFGKPELPRQPGSTAQYDAGAGSPEAEPTDSDSPPSSSADASRFLHTLDWQEEKEAETGAENASSKESESALMEDRDESEVSDEGGSPISSEGQEPRADPEPPGLAAGLVQQDLVFEVETPAVLPEPVPQEDGVDLLGLHSEVGAGPAVPPQACKAPSSNTDLLSCLLGPPEAASQGPPEDLLSEDPLLLASPAPPLSVQSTPRGGPPAAADPFGPLLPSSGNNSQPCSNPDLFGEFLNSDSVTVPPSFPSAHSAPPPSCSADFLHLGDLPGEPSKMTASSSNPDLLGGWAAWTETAASAVAPTPATEGPLFSPGGQPAPCGSQASWTKSQNPDPFADLGDLSSGLQGSPAGFPPGGFIPKTATTAKGSSSWQTSRPPAQGASWPPQAKPPPKACTQPRPNYASNFSVIGAREERGVRAPSFAQKPKVSENDFEDLLSNQGFSSRSDKKGPKTIAEMRKQDLAKDTDPLKLKLLDWIEGKERNIRALLSTLHTVLWDGESRWTPVGMADLVAPEQVKKHYRRAVLAVHPDKAAGQPYEQHAKMIFMELNDAWSEFENQGSRPLF”: the “soluble on expression in E. coli” value is “soluble”. The result for “MGSDKIHHHHHHMERPILGKYIIKGKIILETGLRIGGQELGVNIGGIDNPVIRNPLTGEPYIPGSSVKGKMRSLMERLLNLDISGNKVRRHECEERECKVCRVFGSTSKEGNNIPSRLLVRDAFLTEDSKTKLLSMETDLPYTEWKTENALDRVTCKADPRSFERIPAGAEFEFEIIYTAENEKHIKEDLENIATALELLEDDYLGGNGSRGYGKVKFSIEKVIFKSADYYKGEGTPVEKEVKGGVEGFKKAIPEIVKG” reads “not soluble”; that for “MSLDNQLINSIIEKYQFSKKQIEAVLTLLEEKNTVPFIARYRKEQTGGLDEVQIKQIDDEYQYMVNLQKRKEEVIKNIEQQGLLTEELKKDILKQNKLQRVEDLYRPFKQKKKTRATEAKRKGLEPLAIWMKARKHEVSIEEKAQQFINEEVQSVEDAIKGAQDIIAEQISDNPKYRTKILKDMYHQGVLTTSKKKNAEDEKGIFEMYYAYSEPIKRIANHRVLAVNRGEKEKVLSVKFEFDTTSVEDFIARQEINHNNVNRSYILEAIKDSLKRLIVPSIEREIHADLTEKAENHAIDVFSENLRNLLLQPPMKGKQILGVDPAFRTGCKLAVINPFGTFIAKGVIYPHPPVSKKEAAEKDFVQMVKAYDVQLIAIGNGTASRETEQFVADLIKKHQLPVQFIIVNEAGASVYSASEIARDEFPDFQVEERNAVSIGRHVQDPLSELVKIDPKSIGVGQYQHDFFQEGHHHHHH”, “soluble”; that for “MYSANRSHRAETRNRSKDELRKVINSLEKVRRWEKKLVLIKDTNIRIYKWVPVSAQNIMAPPKIKEVKEVDEESNQVPSAENSQDSTSVTQPPPQFDINEDSNFSTGDHFDSDSNQTFEPQNYQGGATGSTDFSSMRDAEMTSKQP”, “not soluble”. The result for “MMDITTLDQFKDEIYGVKGTPRRDNLERELETLRIGVQIRNARQKKEMTQAQLAERINKKRTFISKVENDGGNLTLKTLIDIVERGLGGKLNIEVKI” reads “not soluble”. The result for “MSLDIKRVLKAAPTKMRSREPLQQLWTPWGERIEHEWLSARAGNKAFNPAEEGERTLDEGRTPILGEHPRPTMVRDNCTMLNGWWDYAIVSIPEDETAPKWRKTAAMLTRDEAVRAVKETAIPQTFDGKILVPFSPESALSGVHQTIYPDNLLWYRTVVHPVTLGGEETVRQIGDANRLILHFEAVDYVCACYVNGQLAGTHVGGYLPFDVDISAFIDPDDAFEIALCVYDPNDSGTQLRGKQKIEREGIWYTAQSGIWQSVWLEIVPEAYLRTLTLKGASDGKLFVRAEIGGDKPNAKLHIVVTDPADGTVVADETLPAGVRKVRAEIATAAEHLWSPADPYLYDVRAELRYGSAKPAETAGDAAVVQSQPMDVVSSYCAFRSVEIKPDTKGVARFHLNGKPLFVKGVLDQGYWPDGLMTAPDDEALTHDITAMKNAGFNMLRKHIKIESARWYYHCDRLGMLVWQDAVSGGGTDGEYNAWTTNRKPTLIRSTWNKFRDDTAKHFTALGADDPIYRRDWSRTCDAMVHMLGGHPSIVTWTLFNEGWGQFDACDATERIHALDPTRPIDATSGWYDQHCGDYHSVHNYFRPLEIYPDKGPLRGYVAEFEKKHRRRRRAAHYVVLPVARHGVRAFVISEFGGLAQLVPEHAAVSRAYGYGEYDSIDDWRAAVRSVLASAAALESRGLAGYVYTQVSDVEEELNGLLTYDRRVDKFAEEGHHHHHH” reads “soluble”; that for “ASNFEEFVLVDNGGTGDVKVAPSNFANGVAEWISSNSRSQAYKVTCSVRQSSANNRKYTVKVEVPKVATQVQGGVELPVAAWRSYMNMELTIPVFATNDDCALIVKALQGTFKTGNPIATAIAANSGIY”, “soluble”. For the sequence “GAMGSPKEHIDLYQQIKWNGWGDTRKFLHQLKPSGTIAMTTPEVSSVPLPSLRGFIKKELTLPGEEDKPFVLDETPALQIENIHVDPPKQYPEFVRELKAFFLPDQLKDDKLARITHTFGKSLRDLIRVRIGQVKNAPDLIVLPHSHEEVERLVQLAHKYNVVIIPMGGGSNIVGAIEPVSNERFTVSIDMRRMNKVLWVDRREMTACIQVGIMGPELEKQLHKQGVSLGHDPDSFEFSTLGGWLATCSSGHQSDKYGDIEDMAVSFRTVTPTGTLELRNGARSGAGINYKHIILGSEGTLGIITEAVMKVHAVPQAVEYYGFLFPTFAHAVSALQQIRSSEVIPTMIRVYDPEETQLSFAWKPSKGAVSEFTSAMVKKYLHYIRSFDFKNVCLSIIGFEGPKKVVDFHRTSVFDILSKNAAFGLGSAPGKTWAEKRYDLPYIRDFLLDHNMWVDVAETTVSYANLQTLWKDAKQTFVKHFKDQGIPAWICAHISHTYTNGVCLYFIFASKQNENKDMAQYIEAKKLMTDIIFKYGGSLSHHHGVGYEHVPWMTRYATRGWINVYRSLKETIDPKDICNPRKLI”, the “soluble on expression in E. coli” value was “soluble”. The result for “MKDVILVIYSLIKMTKLRSCPLDDCNSSETYFQLDKHLKNEHDGLVLLMVDPQSQWRCEQMKRHVEYVDLMSATEIPHIAEVVHHQLPYIDTLIIFRCLS” reads “soluble”.
